Test in all cases: peptide competition for albumin
For assay [1], the target named is T1, rabbit serum albumin (rabbit), P49065.
T1 chain: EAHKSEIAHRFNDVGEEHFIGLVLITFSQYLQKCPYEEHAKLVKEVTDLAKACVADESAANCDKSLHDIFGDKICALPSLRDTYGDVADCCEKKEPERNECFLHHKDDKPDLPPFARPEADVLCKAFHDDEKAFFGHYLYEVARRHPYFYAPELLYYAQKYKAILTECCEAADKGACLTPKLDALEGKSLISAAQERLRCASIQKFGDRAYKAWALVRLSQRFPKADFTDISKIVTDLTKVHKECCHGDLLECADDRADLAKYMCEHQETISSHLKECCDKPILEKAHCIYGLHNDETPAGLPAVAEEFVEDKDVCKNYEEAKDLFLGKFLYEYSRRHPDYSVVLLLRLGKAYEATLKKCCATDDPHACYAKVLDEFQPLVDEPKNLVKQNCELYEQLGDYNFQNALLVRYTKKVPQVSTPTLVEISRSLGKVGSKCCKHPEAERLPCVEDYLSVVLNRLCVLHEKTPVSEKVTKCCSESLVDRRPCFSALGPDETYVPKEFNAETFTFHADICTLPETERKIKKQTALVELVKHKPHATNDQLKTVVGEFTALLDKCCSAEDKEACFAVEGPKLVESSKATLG

Assay [2] addresses T2, rat serum albumin (rat), P02770.
T2 chain: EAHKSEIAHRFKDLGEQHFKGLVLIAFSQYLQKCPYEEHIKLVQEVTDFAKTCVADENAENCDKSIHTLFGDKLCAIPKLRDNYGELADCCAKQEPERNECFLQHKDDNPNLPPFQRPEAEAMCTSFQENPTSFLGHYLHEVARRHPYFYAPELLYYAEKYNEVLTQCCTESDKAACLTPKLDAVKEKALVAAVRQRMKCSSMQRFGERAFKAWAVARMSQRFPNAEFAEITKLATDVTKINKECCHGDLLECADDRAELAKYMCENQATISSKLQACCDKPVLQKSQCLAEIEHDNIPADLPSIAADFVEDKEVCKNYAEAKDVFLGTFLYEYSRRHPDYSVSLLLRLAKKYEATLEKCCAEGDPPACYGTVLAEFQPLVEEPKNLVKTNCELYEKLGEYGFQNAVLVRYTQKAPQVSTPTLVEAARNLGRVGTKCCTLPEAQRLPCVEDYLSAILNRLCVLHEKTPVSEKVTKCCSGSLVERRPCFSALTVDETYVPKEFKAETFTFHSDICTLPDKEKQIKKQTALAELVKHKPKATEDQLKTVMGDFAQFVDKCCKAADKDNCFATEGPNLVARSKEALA

Assay [3] concerns the target mouse serum albumin (mouse), P07724.

The record followed here is patent publication US20060073152A1.

Chain of mouse serum albumin (mouse), P07724 (P07724 25-608 limits assumed): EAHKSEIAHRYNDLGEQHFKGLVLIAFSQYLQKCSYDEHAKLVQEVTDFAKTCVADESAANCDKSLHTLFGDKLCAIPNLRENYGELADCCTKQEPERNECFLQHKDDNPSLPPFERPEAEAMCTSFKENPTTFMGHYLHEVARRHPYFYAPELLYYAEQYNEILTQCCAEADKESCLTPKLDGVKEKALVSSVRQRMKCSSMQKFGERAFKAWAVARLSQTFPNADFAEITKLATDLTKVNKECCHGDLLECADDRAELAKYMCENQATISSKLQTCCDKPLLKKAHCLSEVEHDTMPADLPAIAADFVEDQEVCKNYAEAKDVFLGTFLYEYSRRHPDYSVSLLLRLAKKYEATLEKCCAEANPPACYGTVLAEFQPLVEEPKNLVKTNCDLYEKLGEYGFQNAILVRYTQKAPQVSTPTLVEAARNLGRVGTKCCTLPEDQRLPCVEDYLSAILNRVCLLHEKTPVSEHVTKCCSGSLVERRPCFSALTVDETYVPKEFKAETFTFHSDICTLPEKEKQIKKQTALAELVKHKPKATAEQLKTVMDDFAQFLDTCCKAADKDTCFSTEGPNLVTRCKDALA

B1: SA13 (peptide)
peptide: RLMEDICLARWGCLWEDD
modifications: not checked
For B1, the IC50 (commonly the concentration that inhibits the measured activity by half) in assay [1] stood at 3200 nM; in assay [2] it was 2480 nM; in assay [3], 188 nM.
